Data on 134 substances can be found in the supplement of paper PMC12042874.

Data set [1] is described as follows: amyloid nucleation score (Sup35N fusion, yeast selection) (log enrichment); library NNK2; higher = more nucleation; inactive = no reads after selection. In short, it runs like this:
(§1)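 Using DiMSum, nucleation scores were taken as the log enrichment of output over input reads, centred on the mode score of non-aggregating sequences. The input and output reads came from Illumina sequencing of plasmid inserts, with sequences under 100 input reads excluded. The yeast were psi-negative, expressed Sup35N fused to peptides of 20 random codons, were induced with 100 μM copper sulfate for 24 hours, and were grown 7 days at 30°C on medium lacking adenine and uracil.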

Data set [2] can be described thus: amyloid nucleation score (Sup35N fusion, yeast selection) (log enrichment); library NNK3; higher = more nucleation; inactive = no reads after selection. The method, boiled down: as §1

± gives the uncertainty stated by the source.

In turn, NTSMSPSQYCC came in with an amyloid nucleation score in data set [1] of 2.86 ± 0.16.

In the case of RRLSGSFLRDYVNPWIQRSS, in data set [1], the amyloid nucleation score is -0.277 ± 0.42. The same measure, in the same setting: to LFSILAGS belongs 0.575 ± 0.46; to LIFSAEMNLIVTDWTVRLSS, 0.496 ± 0.8. AGWRLVTQDRLSLLNQTDVF yielded an amyloid nucleation score in data set [1] of 1.05 ± 0.36. Consider HLVMCMARVGTTVNLMSHQT, for which the amyloid nucleation score in data set [1] came out at 6.304 ± 0.057. In data set [1], YMLINAMVTFFMHGVDRKRR yielded an amyloid nucleation score of 5.516 ± 0.055.

Regarding GQAHRFGTHLRISAGVVPPV, in data set [1], the amyloid nucleation score was 0.01 ± 0.32.

In data set [1], RSWVLLSYAPFHCS returned an amyloid nucleation score of 0.482 ± 0.19. WSCQESIVRSRDDYSRFRCG returned an amyloid nucleation score in data set [1] of 3.42 ± 0.13. On to RFKLEYHEEG, for which the amyloid nucleation score in data set [1] was determined as 2.81 ± 0.19. In data set [1], YHYNNNRWVTGHFQWIWSLY yielded an amyloid nucleation score of 6.453 ± 0.029. Same read-out and setting: under FLLSVGSHCMPVHEYGMTNA stands 0.445 ± 0.56; under RCPGCDE, 1.26 ± 0.25; under EMNFKALLKGVNGFVWDGVF, 1.43 ± 0.21. On the same count and under the same terms, under SFPDSSRSKWIS stands -0.775 ± 0.45; under YNRLMVGRPRLQHLSL, -1.51 ± 0.39. NPFLFAYANYLLLMCIGRVY returned an amyloid nucleation score in data set [1] of -0.044 ± 0.61. As for HMCHTVLHVSAGY, the amyloid nucleation score in data set [1] amounted to 0.246 ± 0.8. The same measure, in the same setting: to FMSGRESAVCLFKNFSVLRS belongs 2.76 ± 0.084. In turn, NEYYAFFRLSADSASS returned an amyloid nucleation score in data set [1] of 0.571 ± 0.51. On the same count and under the same terms, to FMEYCSVLLFCLVMARLSGS belongs -0.012 ± 1.1; to WVIVRLIITTDVQCNYVFLP, 0.248 ± 0.38. On the same count and under the same terms, to GMRWSFGVLASRSFCVKWCP belongs 5.57 ± 0.09; to CPVFGSIGGLISNSWYVTLM, 5.335 ± 0.046. PRGLATRPLFNRVYLHWYLL: the amyloid nucleation score in data set [1] was -0.639 ± 0.61. Take LCVEELMTCVCWVRS: in data set [1], the amyloid nucleation score is 0.47 ± 0.26. Take LGGTY: the amyloid nucleation score in data set [1] is -0.449 ± 0.64.

FYMPLLMYVVAVRPMSGNLV yielded an amyloid nucleation score in data set [1] of -0.22 ± 1.

As for EEYCSFKLVHMGRGPAGHSI, the amyloid nucleation score in data set [1] stood at 2.58 ± 0.11. The same measure, in the same setting: to LESVWHILGGFGIMVFYITK belongs “inactive”. In turn, VHGDMVFVCLTRCYRMF showed an amyloid nucleation score in data set [1] of 5.37 ± 0.065. Substance KYVVVYDSVYGFSVSGFSLW displayed an amyloid nucleation score in data set [1] of 0.777 ± 0.19. On the same count and under the same terms, to VDSPKREVNMCVWLLRRKQR belongs 0.21 ± 0.34; to DSNDRWVW, -0.409 ± 0.76; to PILEIYVCGSLMYIFNITIV, 6.691 ± 0.033. On the same count and under the same terms, to NWKWVRSKVAWPMRSEHHVE belongs 1.65 ± 0.21.

In the case of KLPFELKSDDFTCFNWANSR, the amyloid nucleation score in data set [1] is -0.097 ± 1.1.

For the substance SHWCIVYKGLRNVIVC, the amyloid nucleation score result in data set [1] is “inactive”. Same read-out and setting: under RSYFSDFH stands “inactive”; under WNMMPRASEQFYYRL, “inactive”. In data set [1], ICISWPINLCMV displayed an amyloid nucleation score of 2.6 ± 0.22.

In data set [1], LFYGNWPVFKGVLFCAVLVG registered an amyloid nucleation score of 0.092 ± 0.79.

Consider LQSKAGEPLGRDMRLFLVPV, for which the amyloid nucleation score in data set [1] stood at 0.698 ± 0.58. As to SERRGIIGSGLRDGRVLFTT, the amyloid nucleation score entry in data set [1] is “inactive”. ERHNAELRHPAQYLEFTTLG had an amyloid nucleation score in data set [1] of 1.38 ± 0.37. The same measure, in the same setting: to MSNARRFSMNDSYNIVLCWE belongs -0.111 ± 0.63; to FAFWGVSI, 0.332 ± 0.24. Turning to NIRSHKGIVLVG, in data set [1], the amyloid nucleation score entry was “inactive”. DISWYCGDHGSVVVECRNDL returned an amyloid nucleation score in data set [1] of 2.63 ± 0.069.

In the case of VHYMHLSRLLKLHAEPLAFW, the amyloid nucleation score in data set [1] was -0.02 ± 0.55.

Consider QNFNILIGRGDVY, for which the amyloid nucleation score in data set [1] was 1.6 ± 0.23. VWHLLRKSFSFR came in with an amyloid nucleation score in data set [1] of 0.619 ± 0.8. Consider NSYMHGQDF, for which the amyloid nucleation score result in data set [2] was “inactive”. Same read-out and setting: under LLMDGLIRFWS stands “inactive”; under FNFNILTIWIDLLAQLGMT, 1.85 ± 0.1.

In the case of ILSITC, in data set [2], the amyloid nucleation score result is “inactive”. Consider FLPQFDYVQIMVPCYCLEVV, for which, in data set [2], the amyloid nucleation score entry is “inactive”.

Turning to FFPFPKFWAGIVIAFY, the amyloid nucleation score entry in data set [2] is “inactive”. RQSCGFILQWDKLCFSRDRT displayed an amyloid nucleation score in data set [2] of 0.879 ± 0.25. EMLYTLIIVYLVNMYFCTQS: the amyloid nucleation score entry in data set [2] was “inactive”.

Consider THISQNLQSVVHLYVLRKVV, for which the amyloid nucleation score entry in data set [2] is “inactive”. Take FDHPFICIKPRATRREAWLT: the amyloid nucleation score entry in data set [2] is “inactive”. In data set [2], LRGGMIEPNTRRYS returned an amyloid nucleation score of 1 ± 0.15. Same read-out and setting: to FNSYGKLWYFESKDRVYACD belongs -0.462 ± 1.4; to HSDILRFCLMVNKDTVHSVL, “inactive”; to TLSSKDVYMFLDS, “inactive”. For GYLIIVIRLSAIDRHQ, the amyloid nucleation score result in data set [2] was “inactive”. Still for that read-out and setting: to SDGDVMFLVKIEAGAFSGGM belongs “inactive”; to YQDLP, “inactive”; to NFDTDGTALRKLR, “inactive”. Take TLDVR: the amyloid nucleation score result in data set [2] was “inactive”. As to MDLYMTSWEFTVLSLEKMGR, the amyloid nucleation score entry in data set [2] is “inactive”. For the substance SHKPLDRYLIEWLGLQELLT, the amyloid nucleation score result in data set [2] is “inactive”.

Turning to SRYMARTSDPARYVTPVSNT, the amyloid nucleation score entry in data set [2] was “inactive”. In the case of SVFFYKYQALIRNEGEK, the amyloid nucleation score entry in data set [2] was “inactive”. With VMRPIPMSLYLNNFNES, in data set [2], the amyloid nucleation score result was “inactive”. As to THDVFSSVMLGSFSLSSTTN, in data set [2], the amyloid nucleation score entry is “inactive”.

Take VRNYGLDFRRACGWT: the amyloid nucleation score entry in data set [2] was “inactive”. On to LNSLLY, for which the amyloid nucleation score result in data set [2] was “inactive”.

For IIPTD, the amyloid nucleation score result in data set [2] was “inactive”.

In turn, NWWIRGS gave an amyloid nucleation score in data set [2] of -0.185 ± 0.82. On the same count and under the same terms, under GSMLKAMELSDVVGSCIY stands “inactive”; under PYNVSLFMLRMVSIFFVQHL, “inactive”. For the substance LDNKFSALGCFANARFK, in data set [2], the amyloid nucleation score result is “inactive”. In the case of ANCPMHRLTAGNSLCLWTW, the amyloid nucleation score in data set [2] was found to be 1.69 ± 0.086. In the case of FYSIFN, the amyloid nucleation score entry in data set [2] was “inactive”. As to VINSR, in data set [2], the amyloid nucleation score entry is “inactive”. As for CFCFARFKFR, the amyloid nucleation score in data set [2] was determined as 2.19 ± 0.071. Consider LYRSMH, for which the amyloid nucleation score result in data set [2] is “inactive”. Same read-out and setting: to VLRLFDTNPHDSREVAYFYF belongs “inactive”. With YAFLELFNFVLNLDLGVGYL, in data set [2], the amyloid nucleation score entry is “inactive”. As for EWFSMIVSHFNI, in data set [2], the amyloid nucleation score entry is “inactive”. Same read-out and setting: under TYRCYELVGDTVC stands “inactive”; under KIVFPLNLG, “inactive”; under LELDCASNRLSPNGIYMYFW, 0.123 ± 0.35. Still for that read-out and setting: to CIVMG belongs “inactive”. FEERHCGANWFGSYVIGRWR returned an amyloid nucleation score in data set [2] of 0.798 ± 0.21. Consider NPGRYRGGRTAHIFPERDIR, for which the amyloid nucleation score result in data set [2] is “inactive”. CFSYGMWNSLPRWLALN: the amyloid nucleation score result in data set [2] was “inactive”. Same read-out and setting: under NCNKMCRSCFRCQKTFWVWF stands “inactive”. On the same count and under the same terms, to RFYVYIINHHAPVYWVSRYS belongs 2.59 ± 0.065.

Regarding IVTIFSFQYGWGFLCTRLNF, the amyloid nucleation score result in data set [2] was “inactive”. The same measure, in the same setting: to LSKLPTKMACPLMVRS belongs 0.928 ± 0.24; to FFVIRLNPTSLNCVFSWYLL, “inactive”; to VLRFFM, 0.399 ± 0.23. On the same count and under the same terms, to TGSVVYLKRDVPAIFKFLLV belongs “inactive”. For NTHMRAIMNPLDVSVPRPHK, the amyloid nucleation score entry in data set [2] was “inactive”.

Take VRDRCRIHCAYNRSKGTVSN: the amyloid nucleation score result in data set [2] was “inactive”. The same measure, in the same setting: to KLCDCVMLLFTLDTRIGNVL belongs 0.053 ± 0.7; to QSCVIVLKIGFWDVHSSMTF, 0.426 ± 0.19; to VSINRRLFCLLGDDFTS, “inactive”. On the same count and under the same terms, under SLGAMYVRCDKSWR stands “inactive”; under FKVNGFSATILIFKQV, “inactive”. Regarding SKFIRRT, the amyloid nucleation score result in data set [2] was “inactive”. In turn, TYGNENSSLILSCTCYIMLS showed an amyloid nucleation score in data set [2] of 2.41 ± 0.082. The same measure, in the same setting: to LPGINCARHK belongs -0.918 ± 1.4; to MLMVLRGRSRDNNVQSLLFA, -0.292 ± 1.2. Same read-out and setting: to CGYEVIGNIFGM belongs “inactive”; to GMALPRVIVFIGNRITTNLG, 2.31 ± 0.065. Take KYPNRKLF: the amyloid nucleation score entry in data set [2] was “inactive”. The same measure, in the same setting: under VSWYCCTFAAFILWNSSWCI stands “inactive”. The same measure, in the same setting: under SYFRRIRWQLEEHLLLLWR stands “inactive”; under FICERMRRIVESNVDLLGFY, -0.359 ± 0.32; under WVCIW, 0.178 ± 0.72.

Turning to RYDLCLDLALLRGNWWDLYL, the amyloid nucleation score result in data set [2] was “inactive”. On the same count and under the same terms, to TVYSTVSRDMNDKHFAGSTG belongs “inactive”; to SRLMWSGNLWRILVWCFTSN, “inactive”; to FRYVREAGIGIVG, “inactive”. With NRAVQRFCCDFNAPHIPFR, the amyloid nucleation score result in data set [2] was “inactive”. Still for that read-out and setting: to SGSRLGHCSSLTMKSSLSVD belongs 1.06 ± 0.17; to FDACRFHVHLRYLFNNRYMG, “inactive”. GDMFDWFSGELVFRMRNILC: the amyloid nucleation score in data set [2] was -0.917 ± 1.1. The substance TYRRFMDNNGVIILILPNER displayed an amyloid nucleation score in data set [2] of 1.74 ± 0.072.
